Reference: patent US20170233485A1 (Biogen, published 2017)
“And” between values parts separate entries of the source, which are not always exact repeats. Equal values may be shown once.

T1: human FcγR CD32b-GST fusion protein (human, UniProt P31994 43-217, limits assumed)
T1 construct: FcγR-GST fusion protein on anti-GST acceptor beads; also called FcγRIIB; not shown: GST
T1 sequence (looked up): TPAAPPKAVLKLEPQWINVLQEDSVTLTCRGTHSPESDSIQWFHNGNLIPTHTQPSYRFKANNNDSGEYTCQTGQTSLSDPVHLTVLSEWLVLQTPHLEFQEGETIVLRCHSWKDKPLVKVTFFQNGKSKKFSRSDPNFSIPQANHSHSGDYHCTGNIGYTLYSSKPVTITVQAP

T2: human FcγR CD32a R131-GST fusion protein (human, UniProt P12318 34-217, limits assumed)
T2 construct: FcγR-GST fusion protein on anti-GST acceptor beads; also called FcγRIIa; not shown: GST
T2 sequence (looked up): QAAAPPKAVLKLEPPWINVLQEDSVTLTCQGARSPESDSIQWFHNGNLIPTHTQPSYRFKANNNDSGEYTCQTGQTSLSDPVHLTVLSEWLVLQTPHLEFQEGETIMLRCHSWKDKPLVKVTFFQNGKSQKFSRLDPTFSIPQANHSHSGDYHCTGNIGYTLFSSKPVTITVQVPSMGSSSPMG

T3: mouse CD40 (cell surface) (mouse, UniProt P27512 20-289)
T3 construct: whole, on cells; also called murine CD40
T3 sequence (looked up): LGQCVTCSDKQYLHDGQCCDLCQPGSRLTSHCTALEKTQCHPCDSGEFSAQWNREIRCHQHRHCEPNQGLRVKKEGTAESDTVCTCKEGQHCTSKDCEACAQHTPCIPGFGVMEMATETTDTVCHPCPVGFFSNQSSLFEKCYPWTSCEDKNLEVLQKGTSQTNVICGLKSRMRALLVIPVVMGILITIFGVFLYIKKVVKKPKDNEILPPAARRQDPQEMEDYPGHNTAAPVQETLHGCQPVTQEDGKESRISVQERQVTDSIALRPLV


Legend:
[1] = target: T1, human FcγR CD32b-GST fusion protein; test: ALPHAscreen competition: test antibody displaces biotinylated IgG1 from FcγR-GST
Description: (§1) In order to confirm the expected reduced binding profile of Exemplary Anti-CD40 Antibody 1 to human FcγR, relative binding affinities were measured using Amplified Luminescent Proximity Homogeneous Assay (ALPHAscreen) technology from Perkin Elmer. With this technology, binding pairs are immobilized onto “donor” and “acceptor” beads. Upon laser excitation, donor beads release singlet oxygen that reacts with acceptor beads in close proximity (≦200 nm) generating a cascade of events that ultimately results in fluorescence emission at 520-620 nm.
(§2) The chimeric AKH3 antibody constructs with the human IgG1 and aglycosyl IgG4P/G1 Fc regions were included in the FcγR and C1q assays as Fc competent and Fc-effectorless comparators, respectively. The assay was performed in a competitive format in which binding of test antibodies to FcγR disrupts the interaction of biotinylated IgG1 and FcγR-GST fusion protein immobilized on Streptavidin donor beads and anti-GST acceptor beads respectively. The plates were read using an Envision plate reader (Perkin Elmer) and the resulting relative fluorescence units (RFU) were plotted versus the concentration of test IgG as shown in FIG. 26.

[2] = target: T4, human FcγR CD16a V158-GST fusion protein (human, UniProt P08637 17-208, limits assumed); test: as above
T4 construct: FcγR-GST fusion protein on anti-GST acceptor beads; also called FcγRIIIA; not shown: GST
T4 sequence (P08637 17-208 F176V limits assumed): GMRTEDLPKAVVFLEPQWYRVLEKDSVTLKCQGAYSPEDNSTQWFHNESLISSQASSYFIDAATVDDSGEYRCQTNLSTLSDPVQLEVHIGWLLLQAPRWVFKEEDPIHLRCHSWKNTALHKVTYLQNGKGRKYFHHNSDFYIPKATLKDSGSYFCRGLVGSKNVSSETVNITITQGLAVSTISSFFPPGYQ
Description: as §1, §2

[3] = target: T2, human FcγR CD32a R131-GST fusion protein; test: as above
Description: as §1, §2

[4] = target: T5, human FcγR CD64-GST fusion protein (human, UniProt P12314 16-292, limits assumed); test: as above
T5 construct: FcγR-GST fusion protein on anti-GST acceptor beads; also called FcγRI; not shown: GST
T5 sequence (P12314 16-292 limits assumed): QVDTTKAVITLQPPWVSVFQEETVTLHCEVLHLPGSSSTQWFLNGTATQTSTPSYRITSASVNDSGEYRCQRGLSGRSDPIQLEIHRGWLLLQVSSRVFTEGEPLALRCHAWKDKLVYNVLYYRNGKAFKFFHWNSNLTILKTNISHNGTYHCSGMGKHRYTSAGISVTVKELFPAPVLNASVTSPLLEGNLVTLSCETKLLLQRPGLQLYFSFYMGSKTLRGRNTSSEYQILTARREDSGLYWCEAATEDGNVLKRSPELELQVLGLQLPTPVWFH
Description: as §1, §2

[5] = target: T6, human CD40 H78Q, full length, on 293E cells (human, UniProt P25942 20-277); test: binding to CD40 SNP variants expressed on 293E cells (data not shown)
T6 construct: also called CN916
T6 sequence (P25942 20-277 H78Q limits assumed): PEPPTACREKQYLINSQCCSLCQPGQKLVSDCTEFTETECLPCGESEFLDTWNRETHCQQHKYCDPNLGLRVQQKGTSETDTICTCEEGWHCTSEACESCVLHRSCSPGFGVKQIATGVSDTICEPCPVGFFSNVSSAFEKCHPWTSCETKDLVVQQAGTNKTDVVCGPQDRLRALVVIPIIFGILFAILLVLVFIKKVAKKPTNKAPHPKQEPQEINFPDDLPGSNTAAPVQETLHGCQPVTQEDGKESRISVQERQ
Excerpt: The prevalence of these SNPs is quite rare, believed to be at or below the 3% range. Exemplary Anti-CD40 Antibody 1 bound to 6 of the CD40 proteins encoded by DNA sequences containing SNPs comparably to WT CD40, but more weakly to H78Q and R90W (reduced plateau) and not quantifiably to C77F (data not shown).

[6] = target: T3, mouse CD40 (cell surface); test: flow cytometry on 293E transfected cells
[7] = target: T7, human C1q (human, UniProt P02745 23-245; P02746 28-253; P02747 29-245); test: ELISA, titrated antibody coated, human C1q detected
T7 construct: the three subunits are from general knowledge; also called Complement protein C1q
T7 sequence (P02745 23-245 limits assumed, chain 1 of 3): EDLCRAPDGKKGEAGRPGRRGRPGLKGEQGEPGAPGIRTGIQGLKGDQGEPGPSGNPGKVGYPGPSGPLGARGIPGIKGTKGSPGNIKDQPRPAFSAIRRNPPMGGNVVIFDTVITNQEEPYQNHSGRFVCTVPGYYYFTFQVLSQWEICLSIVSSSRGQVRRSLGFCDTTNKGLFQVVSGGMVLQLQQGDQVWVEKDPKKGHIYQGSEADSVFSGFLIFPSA
T7 sequence (P02746 28-253 limits assumed, chain 2 of 3): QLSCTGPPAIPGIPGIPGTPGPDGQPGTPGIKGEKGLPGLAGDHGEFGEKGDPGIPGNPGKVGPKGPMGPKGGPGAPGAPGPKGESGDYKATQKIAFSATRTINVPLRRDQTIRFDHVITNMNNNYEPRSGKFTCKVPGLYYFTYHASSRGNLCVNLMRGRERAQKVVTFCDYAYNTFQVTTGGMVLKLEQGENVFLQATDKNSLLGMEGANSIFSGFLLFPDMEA
T7 sequence (P02747 29-245 limits assumed, chain 3 of 3): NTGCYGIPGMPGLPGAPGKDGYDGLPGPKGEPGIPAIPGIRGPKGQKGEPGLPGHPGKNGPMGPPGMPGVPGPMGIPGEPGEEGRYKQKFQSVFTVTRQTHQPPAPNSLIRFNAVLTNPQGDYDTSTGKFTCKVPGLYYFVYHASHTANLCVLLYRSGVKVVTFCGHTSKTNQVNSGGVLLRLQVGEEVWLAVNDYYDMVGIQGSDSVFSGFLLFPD
Description: It was also determined that Exemplary Anti-CD40 Antibody 1 is not capable of activating complement by testing its binding to C1q. The assay (adapted from Idusogie et al., J. Immunol., 164:4178-84 (2000)) was conducted in an ELISA format where titrations of the test antibodies are coated in the wells and binding of human C1q is detected with chicken IgY anti-human C1q (custom reagent from Ayes Labs) followed by a donkey F(ab′) 2 anti-chicken IgY HRP conjugate.

[8] = target: T8, human CD40 (cell surface) (human, UniProt P25942 20-277); test: cell-based or functional assay
T8 sequence (P25942 20-277 limits assumed): as the sequence (P25942 20-277 H78Q limits assumed) above, with Q59H counted along it

[9] = target: T8, human CD40 (cell surface); test: FACS, A647-conjugated mAb on primary B cells in human whole blood

Row | fold reduction of binding against WT IgG1 (chAKH3 IgG1) [1] [fold] | fold reduction of binding against WT IgG1 (chAKH3 IgG1) [2] [fold] | fold reduction of binding against WT IgG1 (chAKH3 IgG1) [3] [fold] | fold reduction of binding against WT IgG1 (chAKH3 IgG1) [4] [fold] | binding result [5] | binding result [6] | binding result [7] | IC50, inhibition of CD40L+ Jurkat (D1.1) T cell stimulation of primary human B cells (ICAM-1/CD54 up-regulation, flow cytometry), five normal donors [8] | EC50 [9] [pM] | Binder
1 | ~5 | ~200 | ~5 | ~150 | binds | no binding | no binding |  |  | Exemplary Anti-CD40 Antibody 1 (antibody, human IgG4 S228P, kappa, Alexa647 conjugate in some whole-blood assays; N-linked glycan on the heavy chain; neither is carried by the letters., Humanized IgG4/kappa with S228P (Kabat); also called hAKH3 IgG4P; AKH3 IgG4P; copies: 2 + 2) heavy: not shown light: DIQMTQSPSSLSASVGDRVTISCRASQDISNYLNWYQQKPGKVPKLLIYFTSRLRSGVPSRFSGSGSGTDYTLTISSLQPEDVATYYCQQDRKLPWTFGQGTKLEIKRTVAAPSVFIFPPSDEQLKSGTASVVCLLNNFYPREAKVQWKVDNALQSGNSQESVTEQDSKDSTYSLSSTLTLSKADYEKHKVYACEVTHQGLSSPVTKSFNRGEC
2 |  |  |  |  |  |  |  | 11 ng/mL and 0.07 nM | 500 | Agly hAKH3 IgG4P/IgG1 (antibody, V domains shown) VH: EVQLVQSGAEVKKPGASVKVSCKASGYTFTTFPIEWVRQAPGQGLEWMGNFHPYNDDTKYNEKFKGRVTLTADKSTSTAYMELSRLRSEDTAVYYCARRGKLPFDSWGQGTTVTVSS VL: DIQMTQSPSSLSASVGDRVTISCRASQDISNYLNWYQQKPGKVPKLLIYFTSRLRSGVPSRFSGSGSGTDYTLTISSLQPEDVATYYCQQDRKLPWTFGQGTKLEIK
